# Measured values taken from publication PMC11574045, “A cofactor-induced repressive type of transcription factor condensation can be induced by synthetic peptides to suppress tumorigenesis” (The EMBO Journal, 2024).
# B1: GLI1 (protein, UniProt P08151 1-1106, looked up)
# Zinc finger protein GLI1: MFNSMTPPPISSYGEPCCLRPLPSQGAPSVGTEGLSGPPFCHQANLMSGPHSYGPARETNSCTEGPLFSSPRSAVKLTKKRALSISPLSDASLDLQTVIRTSPSSLVAFINSRCTSPGGSYGHLSIGTMSPSLGFPAQMNHQKGPSPSFGVQPCGPHDSARGGMIPHPQSRGPFPTCQLKSELDMLVGKCREEPLEGDMSSPNSTGIQDPLLGMLDGREDLEREEKREPESVYETDCRWDGCSQEFDSQEQLVHHINSEHIHGERKEFVCHWGGCSRELRPFKAQYMLVVHMRRHTGEKPHKCTFEGCRKSYSRLENLKTHLRSHTGEKPYMCEHEGCSKAFSNASDRAKHQNRTHSNEKPYVCKLPGCTKRYTDPSSLRKHVKTVHGPDAHVTKRHRGDGPLPRAPSISTVEPKREREGGPIREESRLTVPEGAMKPQPSPGAQSSCSSDHSPAGSAANTDSGVEMTGNAGGSTEDLSSLDEGPCIAGTGLSTLRRLENLRLDQLHQLRPIGTRGLKLPSLSHTGTTVSRRVGPPVSLERRSSSSSSISSAYTVSRRSSLASPFPPGSPPENGASSLPGLMPAQHYLLRARYASARGGGTSPTAASSLDRIGGLPMPPWRSRAEYPGYNPNAGVTRRASDPAQAADRPAPARVQRFKSLGCVHTPPTVAGGGQNFDPYLPTSVYSPQPPSITENAAMDARGLQEEPEVGTSMVGSGLNPYMDFPPTDTLGYGGPEGAAAEPYGARGPGSLPLGPGPPTNYGPNPCPQQASYPDPTQETWGEFPSHSGLYPGPKALGGTYSQCPRLEHYGQVQVKPEQGCPVGSDSTGLAPCLNAHPSEGPPHPQPLFSHYPQPSPPQYLQSGPYTQPPPDYLPSEPRPCLDFDSPTHSTGQLKAQLVCNYVQSQQELLWEGGGREDAPAQEPSYQSPKFLGGSQVSPSRAKAPVNTYGPGFGPNLPNHKSGSYPTPSPCHENFVVGANRASHRAAAPPRLLPPLPTCYGPLKVGGTNPSCGHPEVGRLGGGPALYPPPEGQVCNPLDSLDLDNTQLDFVAILDEPQGLSPPPSHDQRGSSGHTPPPSGPPNMAVGNMSVLLRSLPGETEFLNSSA
# B2: GATA2 (protein, UniProt P23769 1-480, looked up)
# Endothelial transcription …: MEVAPEQPRWMAHPAVLNAQHPDSHHPGLAHNYMEPAQLLPPDEVDVFFNHLDSQGNPYYANPAHARARVSYSPAHARLTGGQMCRPHLLHSPGLPWLDGGKAALSAAAAHHHNPWTVSPFSKTPLHPSAAGGPGGPLSVYPGAGGGSGGGSGSSVASLTPTAAHSGSHLFGFPPTPPKEVSPDPSTTGAASPASSSAGGSAARGEDKDGVKYQVSLTESMKMESGSPLRPGLATMGTQPATHHPIPTYPSYVPAAAHDYSSGLFHPGGFLGGPASSFTPKQRSKARSCSEGRECVNCGATATPLWRRDGTGHYLCNACGLYHKMNGQNRPLIKPKRRLSAARRAGTCCANCQTTTTTLWRRNANGDPVCNACGLYYKLHNVNRPLTMKKEGIQTRNRKMSNKSKKSKKGAECFEELSKCMQEKSSPFSAAALAGHMAPVGHLPPFSHSGHILPTPTPIHPSSSLSFGHPHPSSMVTAMG
# B3: GRHL3 (protein, UniProt Q8TE85 1-626, looked up)
# Grainyhead-like protein 3 …: MSNELDFRSVRLLKNDPVNLQKFSYTSEDEAWKTYLENPLTAATKAMMRVNGDDDSVAALSFLYDYYMGPKEKRILSSSTGGRNDQGKRYYHGMEYETDLTPLESPTHLMKFLTENVSGTPEYPDLLKKNNLMSLEGALPTPGKAAPLPAGPSKLEAGSVDSYLLPTTDMYDNGSLNSLFESIHGVPPTQRWQPDSTFKDDPQESMLFPDILKTSPEPPCPEDYPSLKSDFEYTLGSPKAIHIKSGESPMAYLNKGQFYPVTLRTPAGGKGLALSSNKVKSVVMVVFDNEKVPVEQLRFWKHWHSRQPTAKQRVIDVADCKENFNTVEHIEEVAYNALSFVWNVNEEAKVFIGVNCLSTDFSSQKGVKGVPLNLQIDTYDCGLGTERLVHRAVCQIKIFCDKGAERKMRDDERKQFRRKVKCPDSSNSGVKGCLLSGFRGNETTYLRPETDLETPPVLFIPNVHFSSLQRSGGAAPSAGPSSSNRLPLKRTCSPFTEEFEPLPSKQAKEGDLQRVLLYVRRETEEVFDALMLKTPDLKGLRNAISEKYGFPEENIYKVYKKCKRGETSLLHPRLSRHPPPDCLECSHPVTQVRNMGFGDGFWRQRDLDSNPSPTTVNSLHFTVNSE
# B4: GDNF (protein, UniProt P39905 78-211, looked up)
# Glial cell line-derived …: SPDKQMAVLPRRERNRQAAAANPENSRGKGRRGQRGKNRGCVLTAIHLNVTDLGLGYETKEELIFRYCSGSCDAAETTYDKILKNLSRNRRLVSDKVGQACCRPIAFDDDLSFLDDNLVYHILRKHSAKRCGCI
# B5: GLI4 (protein, UniProt P10075 1-376, looked up)
# Zinc finger protein GLI4: MAALGDIQESPSVPSPVSLSSPGTPGTQHHEPQLHLHGHQHGSPGSSPKVLSQPSDLDLQDVEEVEIGRDTFWPDSEPKPEQAPRSPGSQAPDEGAGGALRSLLRSLPRRARCSAGFGPESSAERPAGQPPGAVPCAQPRGAWRVTLVQQAAAGPEGAPERAAELGVNFGRSRQGSARGAKPHRCEACGKSFKYNSLLLKHQRIHTGEKPYACHECGKRFRGWSGFIQHHRIHTGEKPYECGQCGRAFSHSSHFTQHLRIHNGEKPYKCGECGQAFSQSSNLVRHQRLHTGEKPYACSQCGKAFIWSSVLIEHQRIHTGEKPYECSDCGKAFRGRSHFFRHLRTHTGEKPFACGACGKAFGQSSQLIQHQRVHYRE
# B6: GPS2 (protein, UniProt Q13227 1-327, looked up)
# G protein pathway suppressor 2: MPALLERPKLSNAMARALHRHIMMERERKRQEEEEVDKMMEQKMKEEQERRKKKEMEERMSLEETKEQILKLEEKLLALQEEKHQLFLQLKKVLHEEEKRRRKEQSDLTTLTSAAYQQSLTVHTGTHLLSMQGSPGGHNRPGTLMAADRAKQMFGPQVLTTRHYVGSAAAFAGTPEHGQFQGSPGGAYGTAQPPPHYGPTQPAYSPSQQLRAPSAFPAVQYLSQPQPQPYAVHGHFQPTQTGFLQPGGALSLQKQMEHANQQTGFSDSSSLRPMHPQALHPAPGLLASPQLPVQMQPAGKSGFAATSQPGPRLPFIQHSQNPRFYHK
# B7: GCN512 (protein, UniProt Q92830 2-837, looked up)
# Histone acetyltransferase …: AEPSQAPTPAPAAQPRPLQSPAPAPTPTPAPSPASAPIPTPTPAPAPAPAAAPAGSTGTGGPGVGSGGAGSGGDPARPGLSQQQRASQRKAQVRGLPRAKKLEKLGVFSACKANETCKCNGWKNPKPPTAPRMDLQQPAANLSELCRSCEHPLADHVSHLENVSEDEINRLLGMVVDVENLFMSVHKEEDTDTKQVYFYLFKLLRKCILQMTRPVVEGSLGSPPFEKPNIEQGVLNFVQYKFSHLAPRERQTMFELSKMFLLCLNYWKLETPAQFRQRSQAEDVATYKVNYTRWLCYCHVPQSCDSLPRYETTHVFGRSLLRSIFTVTRRQLLEKFRVEKDKLVPEKRTLILTHFPKFLSMLEEEIYGANSPIWESGFTMPPSEGTQLVPRPASVSAAVVPSTPIFSPSMGGGSNSSLSLDSAGAEPMPGEKRTLPENLTLEDAKRLRVMGDIPMELVNEVMLTITDPAAMLGPETSLLSANAARDETARLEERRGIIEFHVIGNSLTPKANRRVLLWLVGLQNVFSHQLPRMPKEYIARLVFDPKHKTLALIKDGRVIGGICFRMFPTQGFTEIVFCAVTSNEQVKGYGTHLMNHLKEYHIKHNILYFLTYADEYAIGYFKKQGFSKDIKVPKSRYLGYIKDYEGATLMECELNPRIPYTELSHIIKKQKEIIKKLIERKQAQIRKVYPGLSCFKEGVRQIPVESVPGIRETGWKPLGKEKGKELKDPDQLYTTLKNLLAQIKSHPSAWPFMEPVKKSEAPDYYEVIRFPIDLKTMTERLRSRYYVTRKLFVADLQRVIANCREYNPPDSEYCRCASALEKFFYFKLKEGGLIDK
# B8: GATAD1 (protein, UniProt Q8WUU5 1-269, looked up)
# GATA zinc finger …: MPLGLKPTCSVCKTTSSSMWKKGAQGEILCHHCTGRGGAGSGGAGSGAAGGTGGSGGGGFGAATFASTSATPPQSNGGGGGKQSKQEIHRRSARLRNTKYKSAPAAEKKVSTKGKGRRHIFKLKNPIKAPESVSTIITAESIFYKGVYYQIGDVVSVIDEQDGKPYYAQIRGFIQDQYCEKSAALTWLIPTLSSPRDQFDPASYIIGPEEDLPRKMEYLEFVCHAPSEYFKSRSSPFPTVPTRPEKGYIWTHVGPTPAITIKESVANHL
# B9: AIRE (protein, UniProt O43918 1-545, looked up)
# Autoimmune regulator: MATDAALRRLLRLHRTEIAVAVDSAFPLLHALADHDVVPEDKFQETLHLKEKEGCPQAFHALLSWLLTQDSTAILDFWRVLFKDYNLERYGRLQPILDSFPKDVDLSQPRKGRKPPAVPKALVPPPRLPTKRKASEEARAAAPAALTPRGTASPGSQLKAKPPKKPESSAEQQRLPLGNGIQTMSASVQRAVAMSSGDVPGARGAVEGILIQQVFESGGSKKCIQVGGEFYTPSKFEDSGSGKNKARSSSGPKPLVRAKGAQGAAPGGGEARLGQQGSVPAPLALPSDPQLHQKNEDECAVCRDGGELICCDGCPRAFHLACLSPPLREIPSGTWRCSSCLQATVQEVQPRAEEPRPQEPPVETPLPPGLRSAGEEVRGPPGEPLAGMDTTLVYKHLPAPPSAAPLPGLDSSALHPLLCVGPEGQQNLAPGARCGVCGDGTDVLRCTHCAAAFHWRCHFPAGTSRPGTGLRCRSCSGDVTPAPVEGVLAPSPARLAPGPAKDDTASHEPALHRDDLESLLSEHTFDGILQWAIQSMARPAAPFPS
# B10: GLIS3 (protein, UniProt Q8NEA6 1-775, looked up)
# Zinc finger protein GLIS3: MMVQRLGLISPPASQVSTACNQISPSLQRAMNAANLNIPPSDTRSLISRESLASTTLSLTESQSASSMKQEWSQGYRALPSLSNHGSQNGLDLGDLLSLPPGTSMSSNSVSNSLPSYLFGTESSHSPYPSPRHSSTRSHSARSKKRALSLSPLSDGIGIDFNTIIRTSPTSLVAYINGSRASPANLSPQPEVYGHFLGVRGSCIPQPRPVPGSQKGVLVAPGGLALPAYGEDGALEHERMQQLEHGGLQPGLVNHMVVQHGLPGPDSQSAGLFKTERLEEFPGSTVDLPPAPPLPPLPPPPGPPPPYHAHAHLHHPELGPHAQQLALPQATLDDDGEMDGIGGKHCCRWIDCSALYDQQEELVRHIEKVHIDQRKGEDFTCFWAGCPRRYKPFNARYKLLIHMRVHSGEKPNKCTFEGCEKAFSRLENLKIHLRSHTGEKPYLCQHPGCQKAFSNSSDRAKHQRTHLDTKPYACQIPGCTKRYTDPSSLRKHVKAHSSKEQQARKKLRSSTELHPDLLTDCLTVQSLQPATSPRDAAAEGTVGRSPGPGPDLYSAPIFSSNYSSRSGTAAGAVPPPHPVSHPSPGHNVQGSPHNPSSQLPPLTAVDAGAERFAPSAPSPHHISPRRVPAPSSILQRTQPPYTQQPSGSHLKSYQPETNSSFQPNGIHVHGFYGQLQKFCPPHYPDSQRIVPPVSSCSVVPSFEDCLVPTSMGQASFDVFHRAFSTHSGITVYDLPSSSSSLFGESLRSGAEDATFLQISTVDRCPSQLSSVYTEG
# B11: GMNN (protein, UniProt O75496 1-209, looked up)
# Geminin: MNPSMKQKQEEIKENIKNSSVPRRTLKMIQPSASGSLVGRENELSAGLSKRKHRNDHLTSTTSSPGVIVPESSENKNLGGVTQESFDLMIKENPSSQYWKEVAEKRRKALYEALKENEKLHKEIEQKDNEIARLKKENKELAEVAEHVQYMAELIERLNGEPLDNFESLDNQEFDSEEETVEDSLVEDSEIGTCAEGTVSSSTDAKPCI
# Tested on: HEK293FT cells transfected with TF library
# Assay: Screening of TF condensates based on fluorescent puncta
# Format: cell-based
# Settings: Figure 1B numerical data; TF library screen, one value per transcriptional factor
# Summary of the method: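 TF plasmids (final 1.6 μg/ml) reverse-transfected with PEI (4.8 μg/ml) into HEK293FT cells; after 60 h, cells cultured ±glucose for 12 h, fixed in 4% PFA and immunostained for Flag or GAL4 tags with Alexa 488 secondaries. Puncta scored by automated imaging of 50 random fields per well.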
row,Molecule,Z score of condensed fraction
1,B1,1.126
2,B2,-0.7866
3,B3,-0.6859
4,B4,-0.9627
5,B5,0.3449
6,B6,-0.6135
7,B7,-0.5333
8,B8,-0.9628
9,B9,1.2609
10,B10,0.8153
11,B11,0.2471
